Measured values reported in patent US20240409637A1 (Regeneron, published 2024).

Tests used:
[1] = target: T1, human CD8 on cells (primary human CD8 positive T cells); T cells of mice expressing hCD8; human PBMC-derived … (human, UniProt P01732 22-235; P10966 22-210); assay: flow cytometry (geometric MFI of APC, secondary APC goat anti-mouse IgG) on primary human CD8 positive T cells; four-parameter fit; unit taken from the axis 'Concentration of Antibody Log (M)' [panel Human CD8+ T-cells, table under the plot]
T1 construct: This is native CD8 on cells
T1 sequence (P01732 22-235, chain 1 of 2): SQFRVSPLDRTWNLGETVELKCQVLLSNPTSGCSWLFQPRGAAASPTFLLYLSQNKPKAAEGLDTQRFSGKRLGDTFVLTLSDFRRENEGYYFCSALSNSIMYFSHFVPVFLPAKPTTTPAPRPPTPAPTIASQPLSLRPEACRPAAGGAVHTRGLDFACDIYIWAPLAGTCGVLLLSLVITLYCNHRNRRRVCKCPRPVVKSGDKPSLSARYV
T1 sequence (P10966 22-210, chain 2 of 2): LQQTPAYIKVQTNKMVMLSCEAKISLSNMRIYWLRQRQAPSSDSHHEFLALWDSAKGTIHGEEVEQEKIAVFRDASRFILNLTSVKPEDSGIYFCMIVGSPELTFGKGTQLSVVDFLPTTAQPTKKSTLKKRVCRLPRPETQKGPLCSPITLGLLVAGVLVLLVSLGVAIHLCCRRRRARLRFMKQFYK
Procedure: (§1) mAb1 and isotype control antibodies were 4 fold serially diluted in stain buffer (PBS containing 2% FBS) in either an 8-point titration for human CD8 positive T cells or 11 point titration for cynomolgus monkey T cells, starting at a concentration of 200 nM. A sample without primary antibody, stain buffer only, was also included as a control. Antibody titrations were plated out, 50 ul/well, into V-bottom microplates. Primary human and cynomolgus monkey T cells were stained for 15 minutes with LIVE/DEAD™ Fixable Violet Dead Cell Stain (Invitrogen) diluted 1:1000 in PBS. Cells were washed twice, and resuspended in PBS containing 2% FBS. To gate out CD4+ monkey T cells a CD4 antibody from BD Biosciences, that reacts with cynomolgus CD4+ T cells, was incubated with monkey T cells for 30 min on ice and cells were subsequently washed once with stain buffer. Human CD8 positive and monkey T cells in stain buffer were plated such that 50 ul of cell suspension, containing approximately 150,000 T cells, were added into wells of the 96-well V-bottom microplate containing the titrated antibodies. […] Samples were analyzed with the FlowJo10 software such that only viable, CD8 positive, single cells were evaluated for antibody binding.

[2] = target: T1, human CD8 on cells (primary human CD8 …); assay: flow cytometry on primary human CD8 positive T cells
Procedure: Recombinant human IL-2 (50 IU/ml) was supplemented into culture media 72 hours post CD3/CD28 Dynabead incubation. When cells had expanded to the necessary cell number for flow cytometry analysis, the Dynabeads were removed by magnetic separation and cells were immediately used to determine the binding of CD8 antibodies or isotype controls.
as §1, with “buffer.” for “buffer. Human CD8 positive and monkey T cells in stain buffer were plated such that 50 ul of cell suspension, containing approximately 150,000 T cells, were added into wells of the 96-well V-bottom microplate containing the titrated antibodies.”

[3] = target: human CD8 alpha and beta subunit on JRT3.T3/AP1-Luc/CD28/CD8AB/1G4AB clone 18 reporter T cells (human, UniProt P01732 22-235; P10966 22-210); assay: cell-based or functional assay
Sequence of human CD8 alpha and beta subunit on JRT3.T3/AP1-Luc/CD28/CD8AB/1G4AB clone 18 reporter T cells (P01732 22-235, chain 1 of 2): as the sequence (P01732 22-235, chain 1 of 2) above
Sequence of human CD8 alpha and beta subunit on JRT3.T3/AP1-Luc/CD28/CD8AB/1G4AB clone 18 reporter T cells (P10966 22-210, chain 2 of 2): as the sequence (P10966 22-210, chain 2 of 2) above

[4] = target: T2, cynomolgus monkey CD8 on cynomolgus monkey T cells (cynomolgus monkey); assay: flow cytometry (geometric MFI of APC, secondary APC goat anti-mouse IgG) on cynomolgus monkey T cells gated on CD8 positive cells; four-parameter fit; unit taken from the axis 'Concentration of Antibody Log (M)' [panel Cynomolgus Monkey T-cells, table under the plot]
Procedure: as §1

[5] = target: T1, human CD8 on cells (primary human CD8 …); assay: flow cytometry on primary human CD8 positive T cells, APC anti-mouse IgG secondary
Procedure: as §1

[6] = target: T2, cynomolgus monkey CD8 on cynomolgus …; assay: flow cytometry on cynomolgus monkey T cells
Procedure: as §1

[7] = target: T3, hCD8α with a C-terminal myc-myc-polyhistidine tag (hCD8α.mmh, REGN3940) (human, UniProt P01732 22-182); assay: SPR (Sierra Sensors MASS-1), mAb captured by anti-mouse Fc, hCD8α.mmh as analyte, 25°C
T3 construct: not shown: C-terminal myc-myc-polyhistidine tag
T3 sequence (P01732 22-182 limits assumed): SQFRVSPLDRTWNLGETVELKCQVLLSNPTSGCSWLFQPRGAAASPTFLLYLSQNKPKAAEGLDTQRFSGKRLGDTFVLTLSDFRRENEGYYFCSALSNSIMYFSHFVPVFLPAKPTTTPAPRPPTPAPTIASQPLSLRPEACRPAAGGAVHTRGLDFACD
Procedure: Equilibrium dissociation constants (KD values) for hCD8α.mmh binding to purified anti-CD8 mAbs were determined using a real-time surface plasmon resonance biosensor using a Sierra Sensors MASS-1 high-capacity amine sensor surface was derivatized by amine coupling with a polyclonal goat anti-mouse Fc antibody (GE, #BR-1008-38) to capture purified anti-CD8 mAbs. SPR binding studies were performed in a buffer composed of 0.01M HEPES pH 7.4, 0.15M NaCl, 3 mM EDTA, 0.05% v/v Surfactant P20 (HBS-ET running buffer). Different concentrations of hCD8α with a C-terminal myc-myc-polyhistidine tag (hCD8α.mmh, REGN3940) prepared in HBS-ET running buffer (ranging from 300 nM to 3.7 nM, 3-fold dilutions) were injected over the anti-CD8 mAb captured surface at a flow rate of 50 μL/minute. Association of hCD8α.mmh to the captured monoclonal antibody was monitored for 4 minutes and the dissociation of hCD8α.mmh in HBS-ET running buffer was monitored for 10 minutes. All of the binding kinetics experiments were performed at 25° C. Kinetic association (kₐ) and dissociation (kd) rate constants were determined by fitting the real-time sensorgrams to a 1:1 binding model using Scrubber 2.0c curve fitting software. Binding dissociation equilibrium constants (KD) and dissociative half-lives (t½) were calculated from the kinetic rate constants as: […]

[8] = target: T2, cynomolgus monkey CD8 on cynomolgus …; assay: flow cytometry on cynomolgus monkey T cells (CD4+ gated out), APC anti-mouse IgG secondary
Procedure: as §1

EC50 [1]: 0.369 nM | Fold Change (MFI compared to isotype control antibody at 25 nM) [2]: 2780 fold | IC50 [M], reduction of AP1-luciferase activity in CD8 T cell/APC luciferase assay [3]: 1.2e-09 M | EC50 [4]: 0.329 nM | EC50 [5]: 0.37 nM | Fold Change (MFI compared to isotype control at 25 nM) [6]: 1480 fold | Kd [7]: 32.6 nM | koff [7]: 0.00519 s⁻¹ | kon [7]: 159000 M⁻¹ s⁻¹ | t1/2 [7]: 2.2 min | EC50 [8]: 0.33 nM
B1: mAb1 (anti-CD8 monoclonal antibody) (antibody, V domains shown)
VH: QVQLVESGGGVDQPGRSLRLSCAASGFIFSNYGIHWVRQAPGKGLEWVAVIWYDGSNKYFEDSVKGRFNISRDNSKNIVYLQMNSLRAEDTAVYFCARSYDMLTGSGDYYGLDVWGQGTTVTVSS
VL: DIQMTQSPSSLSASVGDRVTITCRASQDITNYLAWFQQKPGKAPKSLIYGASSLQSGVPSKFSGSGSGTDFTLTISSLQPEDFATYYCQQYNNYPLTFGGGTKVEIK
notes: It was captured by anti-mouse Fc in SPR and detected with anti-mouse IgG in flow cytometry; It is tied here because mAb1 is the only exemplary antibody; also called H2aM25428N; mAb1-L1
